This sample holds only a part of the variants without activity.
B1: TPR 5TU (parent)
chain: GGAUCUUCUCGAUCUAACAAAAAAGACAAAUCUGCCACAAAGCUUGAGAGCAUCUUCGGAUGCAGAGGCGGCAGCCUUCGGUGGCGCGAUAGCGCCAACGUUCUCAACUAUGACACGCAAAACGCGUGCUCCGUUGAAUGGAGUUUAUCAUG

Variants of: B1
Assay: polymerase ribozyme fitness, log enrichment relative to wild type (log ratio); higher = more active; in vitro selection for triplet polymerase activity
Outline: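 After PCR construction and transcription, each subunit's mutant library from a heterodimeric triplet polymerase ribozyme was annealed with a biotinylated primer, the partner subunit and triplets. Incubation was frozen, at −7 °C, and extended constructs were gel-excised, bound to streptavidin beads and amplified by RT-PCR, in one selection round done in triplicate. Fitness is the logarithm of a genotype's enrichment divided by that of the wild type, from inverse-variance-weighted replicate averages of Illumina-sequenced inputs and outputs. The base of the logarithm is 2, and genotypes needed ≥10 input reads and ≥1 read per output.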

Polymerase ribozyme fitness (log ratio), -0.705:
U6G C95U C96G

Polymerase ribozyme fitness (log ratio), -3.61:
U7C C35U U127G

Polymerase ribozyme fitness (log ratio), -3.31:
C8G A21C

Polymerase ribozyme fitness (log ratio), -3.52:
U7C U15G A41U A52G C96A

Polymerase ribozyme fitness (log ratio), -3.93:
C8G A17G A21U A98G

Polymerase ribozyme fitness (log ratio), ≤ -4.2:
C8G U13G A40C U77A G94A A97C C99U A113G G117U U139G U144G
U7G C8A G46C C63U G83C C85G C114G C149A
C8U A16U A21C G67U C87U
C8A C85G C103U A110G U134G C149G
U7C C38U C87A A122U
C8U C93A
U6C U44A U56A U61C A91G U130A C132U A150C U151G
U9A C93G
U7G C35U U45A A52U G59A C93G G128A G141C
C8U C93U C99G
C8U A17G A30U C95U G126A U148G
U9A A39U U61A C76U C93A A120U G141A
U9A A21G A41C G48U A49C U111G C131A
U9A A64G A89U G92A C131G
U6G G50C U56A G65A A73C C96U U139C
U7G C27A C93U A107G A150U
U9A A26U G92U A142U
U9C A40C U45A G65C C85A U111G A113U C118G
U6G A20U C43U A47U G59A G65C A73C G88U C96A A142G
U6G A24U C79A G84U C85U G117U G141A
U7C G68U A73G U82A G92A U101C C116A A137C
U7C U9C A20U C75G C93U A106C C114A
C8U A24U U55G C69U G74U C87A A138U
C8G C57A G84U C114U U148C A150C
U6G A37G C38G C95U C116U G136U U139A U146C
C8U G92C U111C
U9A G25C C38U G71U U135C A147G
C8A C27U C76U
C8G G42A G59U A66U C87G U139G
U9C A24C A40C C93A C105G G141C
U7A U61A G62A G71C C103G
C8G C36U C114U A115G U135G A150C
C8U C18A A20C A23C G62C A89G G136U
U7C A23U C87A A89G A115U U134A
C8U G11C A23C A60G G94U G136U U144A
C8A C10G G50U C51G U56G C57G G62A G86A
C8U C35U G80A G83A U102G U145C U146C
C8U A21C A28U U53A U77G G88U U145G A150C
C8U A29G G62A C93U C95A U144A
C8G C10G C14G A41C G83U A119U G141C
U6G C14G A16C A20U A21U G42A U61A A64G G71A C85U C87U C129U G136A
U7A G50A U78A C79G G86A C87A C99G A115U G141U
U6G C35G C95A C99U U102A U111C
U7A A19U A49U G88U G100U
U9C A40C U56A C96G U101C U134C
U9C A26U C38U C54A A66C U78A A89C A97G
U7G A16U A28C G62C G86U C95U A110U
C8U C32A A49G G92A C96U U127G A138G
C8A A17U A39U C85U U139A
U6G G46A A113U C125U G136U U146C
U6C U53A G59A G83A U90G C118U C131U A137G A138C
U6G A17U A21U A49C C51U C79U G84A C114G
C8A U31A U56G C63A G68U C99A G128U
C8U C18G C38A C76U U78C A106U A110C C132G U135C U144C U148A C149G
C8G C43G A52G C93G C114G A121G
U7G A26U U56A G59U C75G G84U G94U U130G U146C
U7A A28U G67C C87U C96G C123A
C8A U31G U33G A40U C51U U77C C93G C108G C116U A147G
U7A C10G C32A U33A G50C G83U A91G U102C
U6G A47U U61G C69A
U6G U13G C14U A24C C76A G81U C87A
U6G A16G A29U C54U G86A U102G
U9A C75G C85G C95G
C8A A30U G71A U82G C95A C103G U134A G141U
C8A C14G U55A C85U G88U A138U
C8U G67A U82G U90G C96A C105A C116A C125U U135A A147C U148G
U7A C10G U55A C72U G94A U151A

Polymerase ribozyme fitness (log ratio), -3.76:
C8A G86A

Polymerase ribozyme fitness (log ratio), -3.69:
U6G U139C
U6G A120C G136C

Polymerase ribozyme fitness (log ratio), -3.63:
C8U A52G

Polymerase ribozyme fitness (log ratio), -2.63:
U6G C35U C76A C87U

Polymerase ribozyme fitness (log ratio), 1.13:
U6G A40C

Polymerase ribozyme fitness (log ratio), -3.47:
C8G C96U

Polymerase ribozyme fitness (log ratio), -3.24:
C8U G94A

Polymerase ribozyme fitness (log ratio), -4.15:
U9C C10G

Polymerase ribozyme fitness (log ratio), 0.34:
U6G G80A U82G G141U

Polymerase ribozyme fitness (log ratio), -3.65:
U6G C8G

Polymerase ribozyme fitness (log ratio), -3.84:
U6G A19G C38G C96A A106U

— the RNAGym collection of RNA variant scans (doi:10.1073/pnas.2313332121)
